Assay [1] concerns the target T1, ACVR1 (as used for surface plasmon resonance) (Homo sapiens (assumed), UniProt Q04771).
T1 construct: ACVR1 (ALK2), BMP type I receptor; For other steps (serum ELISA, panning, BLI) the methods name recombinant human ACVR1 extracellular domain proteins (Creative Biomart ACVR1-01H; Sino Biologicals 10227-H03B; R&D Systems 637-AR), but none is named for the BIAcore measurement; It was probably an extracellular domain construct; also called ALK2; BMP type I receptor ACVR1
As to the kind of experiment: SPR; BIAcore; which partner was immobilised, and the conditions, are not told in the text shown. The note with it: both partners purified. Background: SPR reads the build-up and loss of mass on a sensor chip optically.

Assay [2] concerns the target T2, ACVR1 on parental C2C12 cells (Mus musculus (C2C12, endogenous), UniProt P37172).
T2 construct: ACVR1 (ALK2), mouse, endogenous on the surface of C2C12 cells; also called ALK2; wild-type ACVR1; source: endogenous, on mouse C2C12 myoblast cells
The assay can be described thus: flow cytometry on cells; JAB0505 on parental (wild-type ACVR1-expressing) and ACVR1-KO C2C12 cells. The note with it: one partner purified. (Flow cytometry measures light scatter and fluorescence of single cells or particles in a stream.)

The target of assay [3] is T3, ALK3 on C2C12 cells (Mus musculus (C2C12, endogenous), UniProt P36895).
T3 construct: ALK3 (BMPR1A), mouse, endogenous on the surface of C2C12 cells; also called Bmpr1a; source: endogenous, on mouse C2C12 myoblast cells (ACVR1-KO clone)
The description is as above. Conditions: one partner purified.

T3 sequence (P36895 24-532): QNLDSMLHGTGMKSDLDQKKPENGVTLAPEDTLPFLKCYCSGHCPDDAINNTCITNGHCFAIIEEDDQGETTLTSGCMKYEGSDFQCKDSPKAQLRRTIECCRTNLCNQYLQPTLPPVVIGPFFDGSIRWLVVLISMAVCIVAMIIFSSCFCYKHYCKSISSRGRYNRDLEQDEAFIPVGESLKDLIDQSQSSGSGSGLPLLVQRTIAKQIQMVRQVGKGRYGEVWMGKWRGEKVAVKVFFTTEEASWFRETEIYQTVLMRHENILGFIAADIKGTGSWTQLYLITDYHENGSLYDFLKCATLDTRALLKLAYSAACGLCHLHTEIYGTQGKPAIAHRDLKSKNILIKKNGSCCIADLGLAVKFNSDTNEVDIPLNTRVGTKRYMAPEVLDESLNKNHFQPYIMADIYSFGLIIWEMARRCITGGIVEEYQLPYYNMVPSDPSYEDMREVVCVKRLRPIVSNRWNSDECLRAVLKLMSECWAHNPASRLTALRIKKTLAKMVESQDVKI
T2 sequence (P37172 21-509): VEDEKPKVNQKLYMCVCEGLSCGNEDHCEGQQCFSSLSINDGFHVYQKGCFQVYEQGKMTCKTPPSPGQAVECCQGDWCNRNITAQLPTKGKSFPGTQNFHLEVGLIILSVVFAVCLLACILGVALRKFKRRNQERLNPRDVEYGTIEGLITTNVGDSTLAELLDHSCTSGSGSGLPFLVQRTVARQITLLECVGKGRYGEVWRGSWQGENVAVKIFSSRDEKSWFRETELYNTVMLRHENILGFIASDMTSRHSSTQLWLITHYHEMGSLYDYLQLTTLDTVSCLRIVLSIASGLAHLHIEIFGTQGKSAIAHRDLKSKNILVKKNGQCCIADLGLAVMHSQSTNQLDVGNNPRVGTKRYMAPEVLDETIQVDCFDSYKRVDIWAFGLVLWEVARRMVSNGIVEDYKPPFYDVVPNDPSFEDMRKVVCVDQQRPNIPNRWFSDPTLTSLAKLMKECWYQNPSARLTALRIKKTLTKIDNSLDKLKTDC
T1 sequence (Q04771 21-509): as the sequence (P37172 21-509) above, with V1M, Q10P, I121L, E162D, S310P counted along it

B1: anti-ACVR1 monoclonal antibody JAB0505 (antibody, V domains shown)
VH: EVQLQQSGAELVRPGASVRLSCTASGFNIKDSLMHWVKQRPEQGLEWIGWIDPEDGETRYAPNFQDKATITAVTSSNTAYLQLSSLTSEDSAIYYCARYTSRYYTMDYWGQGTSVTVSS
VL: DIQMTQSPASQSASLGESVTFTCLASQTIGTWLAWYQQKPGKSPQLLIYAATSLADGVPSRFSGSGSGTKFSFKISSLQAEDFASYYCQQLYWTPWTFGGGTKLEIK
notes: also called anti-ACVR1 mAb; mAb JAB0505; source: HEK293 cells, purified by protein A chromatography; copies: 2 + 2
As a reminder, the Kd is the equilibrium constant for the complex coming apart. B1 showed a Kd in assay [1] of about 25 nM. Besides, the results for the binding result in assay [2] and in assay [3] were “binds” and “no binding”, respectively.

The values above are taken from publication PMC9197527, “An anti-ACVR1 antibody exacerbates heterotopic ossification by fibro-adipogenic progenitors in fibrodysplasia ossificans progressiva mice” (The Journal of Clinical Investigation, 2022).
